# Measurements from patent US20060281899A1, “Mutants of biotin binding protein” (priority 2002, published 2006).
# Where two headings read alike, the source gives them in different places.
# Legend:
# [1] = Differential scanning calorimetry of the avidin mutants; format: physicochemical; settings: for Tm: DSC, 100 mM Na-phosphate buffer pH 7.4
# Protocol: In order to study the thermal stability of the purified avidin mutants, they were subjected to analysis by differential scanning calorimetry. A Nano II differential scanning calorimeter (Calorimetric Science Corporation, Provo, Utah) was used. […] The reference cell was filled with the same buffer that the sample proteins were dissolved in (100 mM Na-phosphate buffer pH 7.4). The thermograms were recorded as a function of temperature, between 25 and 130° C. at a temperature scan rate of 55.6° C./h. The baselines were subtracted and the transition midpoints (Tm) of the samples were calculated using proprietary software provided by the instrument manufacturer.
# [2] = test system: biotinylated alkaline phosphatase; assay: Microtiter plate assay, biotin-binding activity after heat treatment at 99.9° C.; format: physicochemical; settings: 99.9° C. for various time periods
# Protocol: Reversibility of biotin binding was measured for avidin and the mutants with an IAsys optical biosensor (Laitinen, O. H. et al., FEBS Lett 461 (1999), 52-8). Protein samples were allowed to bind to a biotin-aminosilane cuvette in PBS containing 1 M NaCl. After the equilibrium was reached, biotin-containing buffer was added and the dissociation of the proteins was monitored. The affinities of the proteins towards 2-iminobiotin were determined with an IAsys optical biosensor (Marttila, A. T. et al. FEBS Lett 441 (1998), 313-7). Biotin-binding activity of the mutants Avd-ci and Avd-ccci after heat treatment was studied with a microtiter plate assay. Protein samples, 5 μg/ml concentration in PBS, were heated for various time periods at 99.9° C. and then chilled on ice. The samples were transferred to a Nunc Maxisorp-plate and incubated at 37° C. for 2 h. The wells were washed three times with PBS-Tween (0.05% v/v). […] The absorbances at 405 nm were measured after incubation for 45 minutes.
# Biotin-binding activity of the proteins after heat treatment was studied with a microtiter plate assay (Nordlund, H. R., Laitinen, O. H., Uotila, S. T., Nyholm, T., Hytönen, V. P., Slotte, J. P. & Kulomaa, M. S. (2003) J. Biol. Chem. 278, 2479-2483). […] The absorbencies at 405 nm were measured after incubation for 45 minutes.
# [3] = 2-iminobiotin surface; from Nordlund 2003; read-out: Kd detected from the equilibrium response data; cited from earlier work
# [4] = cited from earlier work
# [5] = IAsys optical biosensor, affinity of avidin and avidin mutants towards 2-iminobiotin; format: binding
# Protocol: Reversibility of biotin binding was measured for avidin and the mutants with an IAsys optical biosensor (Laitinen, O. H. et al., FEBS Lett 461 (1999), 52-8). Protein samples were allowed to bind to a biotin-aminosilane cuvette in PBS containing 1 M NaCl. After the equilibrium was reached, biotin-containing buffer was added and the dissociation of the proteins was monitored. The affinities of the proteins towards 2-iminobiotin were determined with an IAsys optical biosensor (Marttila, A. T. et al. FEBS Lett 441 (1998), 313-7). Biotin-binding activity of the mutants Avd-ci and Avd-ccci after heat treatment was studied with a microtiter plate assay. Protein samples, 5 μg/ml concentration in PBS, were heated for various time periods at 99.9° C. and then chilled on ice. The samples were transferred to a Nunc Maxisorp-plate and incubated at 37° C. for 2 h. The wells were washed three times with PBS-Tween (0.05% v/v). After that the wells were blocked with PBS containing 1% BSA at 37° C. for 30 minutes and washed again with PBS-Tween. Next, biotinylated alkaline phosphatase (Sigma) in PBS, 1% BSA was added and incubated at 37° C. for one hour. Once again, the wells were washed with PBS-Tween and the PNPP substrate in DEA buffer (1 mg/ml) was applied to the wells. The absorbances at 405 nm were measured after incubation for 45 minutes.
# [6] = previously published (Nordlund 2003; Gonzalez 1999)
molecule,measurement,setting,value
"Avd-ccci: Avidin mutant D86C, I106C, I117C with six intermonomeric disulphide bridges (protein, UniProt P02701 25-152, looked up, variant D86C I106C I117C) Avidin: ARKCSLTGKWTNDLGSNMTIGAVNSRGEFTGTYITAVTATSNEIKESPLHGTQNTINKRTQPTFGFTVNWKFSESTTVFTGQCFICRNGKEVLKTMWLLRSSVNDCGDDWKATRVGCNIFTRLRTQKE",ΔTm,"[1]; + biotin, difference in Tm compared to wt avidin + biotin",3.8 °C
same,Tm,[1]; + biotin (biotin:avidin molar ratio 3:1),122.0 ± 0.1 °C
same,Tm,[1]; without biotin,94.7 ± 0.5 °C
same,ΔTm,"[1]; without biotin, difference in Tm compared to wt avidin",9.2 °C
same,biotin-binding activity after heat treatment,[2],"remained active, in the sense of binding biotin, longer than the wild-type avidin"
same,Kd,[3],0.29 µM
same,ΔTm,"[4]; change in Tm upon biotin addition, previously published values",27.3 °C
same,DSC Tm (+biotin),[4]; [6],122.0 ± 0.1 °C
same,DSC Tm(−biotin),[4]; [6],94.7 ± 0.5 °C
same,Kd,[5],0.29 µM
